Test results taken from US12366572B2, “Activation of bioluminescence by structural complementation” (Promega Corporation, priority 2013, dated 2025).

B1: 11S: evolved non-luminescent polypeptide variant 11S (12S-51) (protein)
chain: MVFTLEDFVGDWEQTAAYNLDQVLEQGGVSSLLQNLAVSVTPIQRIVRSGENALKIDIHVIIPYEGLSADQMAQIEEVFKVVYPVDDHHFKVILPYGTLVIDGVTPNMLNYFGRPYEGIAVFDGKKITVTGTLWNGNKIIDERLITPDGSMLFRVTINS
B2: L149M (protein)
chain: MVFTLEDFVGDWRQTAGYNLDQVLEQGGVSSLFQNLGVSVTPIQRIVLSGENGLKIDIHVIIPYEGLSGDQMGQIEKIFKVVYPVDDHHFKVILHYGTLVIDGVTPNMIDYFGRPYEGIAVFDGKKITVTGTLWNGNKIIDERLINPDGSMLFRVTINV

What was measured:
[1] = test system: wt Oplophorus 157-169 peptide; assay: Relative specific activity in HEK293T lysates (Example 143); type: biochemical; conditions: averages of Vmax and Bmax normalized to NanoLuc
Procedure: Each clone was inserted into pFN21A HaloTag® CMV Flexi® Vector (Promega G2821), and lysates were prepared as follows: 3 ml HEK293T cells that have been diluted to a concentration of 200,000 cells/ml (600,000 cells total) were plated into each well of a 6-well plate and grown overnight at 37° C. in a CO2 incubator. The following day transfection complexes of each DNA were prepared by combining […] of DNA, Opti-MEM® (Life Technologies 11058-021) to a final volume of 310 μl and 20 μl of FuGENE® HD (Promega E231a). The transfection complexes were incubated for 20 minutes and then 150 μl of each complex added in duplicate to cells. The cells were grown overnight 37° C. in a CO2 incubator. The following day, the cells were washed cells with DPBS (Life Technologies 14190-144), and 1 ml fresh DPBS added. Cells were frozen to lyse and then thawed for testing. Duplicate transfection reactions lysates were combined.
In order to compare the specific activities of Nluc (full length enzyme) to wt Oplophorusl-156 and NLpoly11S in combination with wt Oplophorus 157-169 peptide (binary proteins), substrate titrations were run for all of the samples, but for the binary samples substrate titrations were run at multiple peptide concentrations. Using this format, it was possible to calculate a Vmax value for Nluc and both Vmax and Bmax values for NLpoly11S and wt Oplophorus 1-156. Three separate experiments were run using this format and Vmax and Bmax values were normalized to the Vmax of NanoLuc. Relative specific activities (calculated as averages of Vmax and Bmax) are normalized to NanoLuc.

[2] = Luminescence of NLpoly without NLpep, E. coli clarified lysate (Example 57); type: biochemical; conditions: E. coli clarified lysate + NanoGlo+Fz
Procedure: 50 μL of each lysate and 50 uL NanoGlo+Fz were mixed and incubated for 5 min RT. Luminescence was measured on GloMax® Multi+ with 0.5 sec integration.

NLpep78-HT or NLpep79-HT = assay: Luminescence of NLpoly variants without NLpep or with NLpep78-HT / NLpep79-HT (Example 93); type: biochemical; conditions: E. coli expression culture
[3] = Substrate specificity of NLpoly 5P and 11S with NLpep79 (Example 97); type: biochemical
Procedure: E. coli clarified lysates were prepared for NLpoly 5P or 11S as described previously. The NLpoly lysates were then serially diluted in steps of 10-fold into PBS+0.1% Prionex.

[…] peptide [4] = target: T1, […] peptide (Oplophorus gracilirostris, UniProt Q9GV45); assay: Non-luminescent polypeptide mutant luminescence after complementation with peptide (Example 5, Table 4); conditions: E. coli culture of polypeptide mutant + 1x peptide solution; NANOGLO reagent
[…] peptide [5] = target: T1, […] peptide; assay: as above; conditions: E. coli culture of polypeptide mutant + 1x peptide solution; NANOGLO reagent; remark: listed apart in the source

Row | Molecule | Relative specific activity (*with wt 157-169 peptide) [1] | Luminescence in the absence of NLpep, higher than WT NLpoly [2] | Luminescence without NLpep or with NLpep78 or NLpep79 (NLpep78-HT or NLpep79-HT) | Substrate specificity for furimazine [3] | Luminescence with […] ([…] peptide [4]) | Luminescence with […] ([…] peptide [5])
1 | B1 | 0.18* | ~500 fold | improved luminescence over the other variants | superior specificity for furimazine than 5P | – | –
2 | B2 | – | – | – | – | 2.89 RLU(mutant)/RLU(WT) | 2.16 RLU(mutant)/RLU(WT)
